Results reported in the supplement of paper PMC10567573.

B1: JUNB (parent)
chain: FVKALDDLHKMNHVTPPNVSLGAT

Variants of: B1
Experiment: protein stability index of a GFP-peptide fusion (GPS, HEK-293T) (PSI 1-6); higher = more stable
Settings: c terminus: a fixed tail appended
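Also: lentivirally expressed fusions sorted by FACS into six bins by GFP to DsRed ratio, PSI derived from sequencing read proportions per bin multiplied by bin number.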

Row | Variant | protein stability index
1 | FVKELDDLHKMNHVTPPNVSLGAT [A4E] | 2.13
2 | FVKSLDDLHKMNHVTPPNVSLGAT [A4S] | 2.03
3 | FVKILDDLHKMNHVTPPNVSLGAT [A4I] | 2.12
4 | FVKVLDDLHKMNHVTPPNVSLGAT [A4V] | 1.77
5 | FVKMLDDLHKMNHVTPPNVSLGAT [A4M] | 1.58
6 | FVKRLDDLHKMNHVTPPNVSLGAT [A4R] | 1.61
7 | FVKPLDDLHKMNHVTPPNVSLGAT [A4P] | 2.6
8 | FVKTLDDLHKMNHVTPPNVSLGAT [A4T] | 2.34
9 | FVKWLDDLHKMNHVTPPNVSLGAT [A4W] | 3.85
10 | FVKQLDDLHKMNHVTPPNVSLGAT [A4Q] | 1.94
11 | FVKNLDDLHKMNHVTPPNVSLGAT [A4N] | 1.66
12 | FVKLLDDLHKMNHVTPPNVSLGAT [A4L] | 2.69
13 | FVKFLDDLHKMNHVTPPNVSLGAT [A4F] | 1.15
14 | FVKYLDDLHKMNHVTPPNVSLGAT [A4Y] | 2.85
15 | FVKDLDDLHKMNHVTPPNVSLGAT [A4D] | 2.24
16 | FVKHLDDLHKMNHVTPPNVSLGAT [A4H] | 2.03
17 | FVKKLDDLHKMNHVTPPNVSLGAT [A4K] | 1.58
18 | FVKCLDDLHKMNHVTPPNVSLGAT [A4C] | 1.63
19 | FVKALDDAHKMNHVTPPNVSLGAT [L8A] | 1.51
20 | FVKAGDDLHKMNHVTPPNVSLGAT [L5G] | 1.99
21 | FVKARDDLHKMNHVTPPNVSLGAT [L5R] | 1.62
22 | FVKAWDDLHKMNHVTPPNVSLGAT [L5W] | 3.57
23 | FVKAIDDLHKMNHVTPPNVSLGAT [L5I] | 1.75
24 | FVKAEDDLHKMNHVTPPNVSLGAT [L5E] | 3.33

Row | Variant | protein stability index
25 | FVKACDDLHKMNHVTPPNVSLGAT [L5C] | 1.87
26 | FVKAHDDLHKMNHVTPPNVSLGAT [L5H] | 1.9
27 | FVKASDDLHKMNHVTPPNVSLGAT [L5S] | 1.72
28 | FVKAPDDLHKMNHVTPPNVSLGAT [L5P] | 2.2
29 | FVKAMDDLHKMNHVTPPNVSLGAT [L5M] | 1.93
30 | FVKAADDLHKMNHVTPPNVSLGAT [L5A] | 2.23
31 | FVKAQDDLHKMNHVTPPNVSLGAT [L5Q] | 2.08
32 | FVKAFDDLHKMNHVTPPNVSLGAT [L5F] | 2.1
33 | FVKATDDLHKMNHVTPPNVSLGAT [L5T] | 2.22
34 | FVKANDDLHKMNHVTPPNVSLGAT [L5N] | 2.38
35 | FVKAVDDLHKMNHVTPPNVSLGAT [L5V] | 1.86
36 | FVKAKDDLHKMNHVTPPNVSLGAT [L5K] | 2.27
37 | FVKADDDLHKMNHVTPPNVSLGAT [L5D] | 2.72
38 | FVKAYDDLHKMNHVTPPNVSLGAT [L5Y] | 2.82
39 | FVIALDDLHKMNHVTPPNVSLGAT [K3I] | 1.98
40 | FVRALDDLHKMNHVTPPNVSLGAT [K3R] | 1.76
41 | FVNALDDLHKMNHVTPPNVSLGAT [K3N] | 1.86
42 | FVFALDDLHKMNHVTPPNVSLGAT [K3F] | 3.15
43 | FVHALDDLHKMNHVTPPNVSLGAT [K3H] | 2.23
44 | FVPALDDLHKMNHVTPPNVSLGAT [K3P] | 2.97
45 | FVWALDDLHKMNHVTPPNVSLGAT [K3W] | 2.47
46 | FVQALDDLHKMNHVTPPNVSLGAT [K3Q] | 1.94
47 | FVMALDDLHKMNHVTPPNVSLGAT [K3M] | 1.74
48 | FVVALDDLHKMNHVTPPNVSLGAT [K3V] | 1.96

Row | Variant | protein stability index
49 | FVAALDDLHKMNHVTPPNVSLGAT [K3A] | 1.69
50 | FVTALDDLHKMNHVTPPNVSLGAT [K3T] | 2.02
51 | FVSALDDLHKMNHVTPPNVSLGAT [K3S] | 2.72
52 | FVCALDDLHKMNHVTPPNVSLGAT [K3C] | 3.29
53 | FVLALDDLHKMNHVTPPNVSLGAT [K3L] | 1.66
54 | FVGALDDLHKMNHVTPPNVSLGAT [K3G] | 2.12
55 | FVYALDDLHKMNHVTPPNVSLGAT [K3Y] | 1.73
56 | FVDALDDLHKMNHVTPPNVSLGAT [K3D] | 2.23
57 | FVEALDDLHKMNHVTPPNVSLGAT [K3E] | 2.44
58 | FVKALDYLHKMNHVTPPNVSLGAT [D7Y] | 2.2
59 | FVKALDKLHKMNHVTPPNVSLGAT [D7K] | 1.8
60 | FVKALDRLHKMNHVTPPNVSLGAT [D7R] | 1.93
61 | FVKALDTLHKMNHVTPPNVSLGAT [D7T] | 2.16
62 | FVKALDMLHKMNHVTPPNVSLGAT [D7M] | 2.62
63 | FVKALDCLHKMNHVTPPNVSLGAT [D7C] | 2.15
64 | FVKALDWLHKMNHVTPPNVSLGAT [D7W] | 2.24
65 | FVKALDELHKMNHVTPPNVSLGAT [D7E] | 1.57
66 | FVKALDGLHKMNHVTPPNVSLGAT [D7G] | 1.98
67 | FVKALDALHKMNHVTPPNVSLGAT [D7A] | 1.69
68 | FVKALDFLHKMNHVTPPNVSLGAT [D7F] | 2.71
69 | FVKALDVLHKMNHVTPPNVSLGAT [D7V] | 2.27
70 | FVKALDNLHKMNHVTPPNVSLGAT [D7N] | 1.96
71 | FVKALDPLHKMNHVTPPNVSLGAT [D7P] | 3.02
72 | FVKALDSLHKMNHVTPPNVSLGAT [D7S] | 1.47

Row | Variant | protein stability index
73 | FVKALDILHKMNHVTPPNVSLGAT [D7I] | 2.48
74 | FVKALDHLHKMNHVTPPNVSLGAT [D7H] | 3.12
75 | FVKALDQLHKMNHVTPPNVSLGAT [D7Q] | 1.7
76 | CVKALDDLHKMNHVTPPNVSLGAT [F1C] | 2.61
77 | IVKALDDLHKMNHVTPPNVSLGAT [F1I] | 2.84
78 | YVKALDDLHKMNHVTPPNVSLGAT [F1Y] | 1.54
79 | MVKALDDLHKMNHVTPPNVSLGAT [F1M] | 3.6
80 | LVKALDDLHKMNHVTPPNVSLGAT [F1L] | 3.29
81 | HVKALDDLHKMNHVTPPNVSLGAT [F1H] | 4
82 | QVKALDDLHKMNHVTPPNVSLGAT [F1Q] | 3.52
83 | NVKALDDLHKMNHVTPPNVSLGAT [F1N] | 3.95
84 | EVKALDDLHKMNHVTPPNVSLGAT [F1E] | 4.27
85 | RVKALDDLHKMNHVTPPNVSLGAT [F1R] | 4.38
86 | VVKALDDLHKMNHVTPPNVSLGAT [F1V] | 3.59
87 | AVKALDDLHKMNHVTPPNVSLGAT [F1A] | 4.1
88 | KVKALDDLHKMNHVTPPNVSLGAT [F1K] | 3.92
89 | DVKALDDLHKMNHVTPPNVSLGAT [F1D] | 4.6
90 | GVKALDDLHKMNHVTPPNVSLGAT [F1G] | 4.05
91 | SVKALDDLHKMNHVTPPNVSLGAT [F1S] | 4.09
92 | WVKALDDLHKMNHVTPPNVSLGAT [F1W] | 2.51
93 | PVKALDDLHKMNHVTPPNVSLGAT [F1P] | 4.57
94 | TVKALDDLHKMNHVTPPNVSLGAT [F1T] | 4.37
